Source: patent US20260258125A1

What was measured:
[1] = target: membrane-bound endogenous human CEACAM5 and CEACAM6 on BxPC3 cells; assay: cell-based or functional assay; set-up: unit not given beside the values
[2] = target: human CEACAM6 on 293T cells (293T-huCEACAM6 cells) (human) (UniProt P40199); assay: cell-based or functional assay; set-up: unit not given beside the values
[3] = target: human CEACAM5 on 293T cells (293T-huCEACAM5 cells) (human) (UniProt P06731); assay: cell-based or functional assay; set-up: unit not given beside the values
[4] = target: membrane-bound endogenous human CEACAM5 and CEACAM6 on LS 174T cells; assay: cell-based or functional assay; set-up: unit not given beside the values
[5] = target: membrane-bound endogenous human CEACAM5 and CEACAM6 on BxPC3 cells; assay: flow cytometry on BxPC3 cells
[6] = target: membrane-bound endogenous human CEACAM5 and CEACAM6 on BxPC3 cells; assay: cell-based or functional assay
[7] = target: membrane-bound endogenous human CEACAM5 and CEACAM6 on LS 174T cells; assay: cell-based or functional assay
[8] = target: membrane-bound endogenous human CEACAM5 and CEACAM6 on LS 174T cells; assay: flow cytometry on LS 174T cells
[9] = target: antigen of the anti-CEACAM5/6 antibodies on HPAC cells; assay: cell-based or functional assay
[10] = target: human CEACAM6 on 293T cells (293T-huCEACAM6 cells) (human) (UniProt P40199); assay: cell-based or functional assay
[11] = target: human CEACAM5 on 293T cells (293T-huCEACAM5 cells) (human) (UniProt P06731); assay: cell-based or functional assay

human CEACAM5 on 293T cells (293T-huCEACAM5 cells) (human), sequence (P06731 35-685 limits assumed): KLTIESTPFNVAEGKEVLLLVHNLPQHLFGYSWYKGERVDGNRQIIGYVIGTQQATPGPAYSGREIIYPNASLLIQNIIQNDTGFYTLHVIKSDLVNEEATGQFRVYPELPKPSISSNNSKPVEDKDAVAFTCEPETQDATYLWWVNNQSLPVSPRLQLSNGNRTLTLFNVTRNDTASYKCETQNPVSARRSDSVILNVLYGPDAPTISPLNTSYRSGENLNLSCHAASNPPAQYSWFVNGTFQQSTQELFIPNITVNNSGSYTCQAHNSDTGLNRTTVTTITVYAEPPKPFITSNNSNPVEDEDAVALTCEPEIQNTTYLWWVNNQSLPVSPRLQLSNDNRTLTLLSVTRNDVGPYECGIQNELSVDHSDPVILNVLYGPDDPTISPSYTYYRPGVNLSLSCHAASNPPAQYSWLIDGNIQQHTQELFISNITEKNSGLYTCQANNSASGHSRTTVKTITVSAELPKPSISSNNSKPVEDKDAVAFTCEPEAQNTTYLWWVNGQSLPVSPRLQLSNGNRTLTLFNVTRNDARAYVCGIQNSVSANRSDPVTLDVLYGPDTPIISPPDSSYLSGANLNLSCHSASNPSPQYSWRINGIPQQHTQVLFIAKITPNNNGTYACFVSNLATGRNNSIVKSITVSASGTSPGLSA
human CEACAM6 on 293T cells (293T-huCEACAM6 cells) (human), sequence (P40199 35-320): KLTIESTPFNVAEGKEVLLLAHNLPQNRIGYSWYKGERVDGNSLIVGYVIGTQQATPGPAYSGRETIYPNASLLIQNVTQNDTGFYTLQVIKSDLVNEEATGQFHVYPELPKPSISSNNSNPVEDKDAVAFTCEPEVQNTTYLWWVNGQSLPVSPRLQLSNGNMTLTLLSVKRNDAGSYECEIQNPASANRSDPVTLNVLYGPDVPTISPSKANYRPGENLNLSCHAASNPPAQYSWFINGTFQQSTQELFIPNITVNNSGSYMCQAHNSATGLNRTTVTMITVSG

Row | Substance | IC50 of in vitro cytotoxicity of the ADC (CellTiter-Glo, 6 days) [1] | IC50 of in vitro cytotoxicity of the ADC (CellTiter-Glo, 6 days) [2] | IC50 of in vitro cytotoxicity of the ADC (CellTiter-Glo, 6 days) [3] | IC50 of in vitro cytotoxicity of the ADC (CellTiter-Glo, 6 days) [4] | EC50 [5] | Internalization of pHAb-dye-labelled antibody, MFI (37° C.-4° C.)/DAR [6] | Internalization of pHAb-dye-labelled antibody, MFI (37° C.-4° C.)/DAR [7] | EC50 [8] | Internalization of pHAb-dye-labelled antibody, MFI (37° C.-4° C.)/DAR [9] | Internalization of pHAb-dye-labelled antibody, MFI (37° C.-4° C.)/DAR [10] | Internalization of pHAb-dye-labelled antibody, MFI (37° C.-4° C.)/DAR [11]
1 | IgG-MMAE | 100 | 72 | 66 | 700 |  |  |  |  |  |  | 
2 | PR303561 (Tusamitamab) (antibody) |  |  |  |  | 3.06 nM | 8230 | 1320 | 1.74 nM |  |  | 
3 | non-relevant IgG isotype control (Crownbio, hIgG1) (antibody) |  |  |  |  |  | 0 | 468 |  | 3010 | 975 | 888
